Assay results: the PETadex activity labels (doi:10.3390/microorganisms12010138)

B1: unnamed (protein)
chain: MEKSVLIKGDNYDISGILSYKETVDKMPAVILCHGTGAQKNEVGDLFVILAEKLLQRGIASIRIDYAGCGDSKADQRELTFLGEVEDTKKAYQYICDLGCVDQKNIGILGFSQGARVVAELLKEMQEFTCVASWSGACQNGRGVFEGWFQEYYQEAEEHGYARIPMGWRDDLLLSKQWFDEIENTTPMDGLKKYTGPVLAVAGAADEIVPCSHTKEIMAEGTNEQSKMLILPGADHIFNVLSGDKTMSEHVLDVTADWFAEVMGGAKISK
B2: unnamed (protein)
chain: MKKLLKVLLIIFLVIVVLVIGLVIFLTIASGKQNAPKEYWNAIASEGTIEKEYNKLGSYEFESKVYDAPKVDSHDNNFVVYMPKEEGTYPLVVMVNGSGTPWDKYKAVFEHFASWGYVVVGCNYEISWDGKHASETLDFALNTKEIADKVDTSKVAVCGHSQGGEGAFNAALEYDNSDMYKAIISLSPTNQELALGLKWGFNLDTDDMYAYRLENVTIPTMIIAGTGKFDSETVTPLYKMEDMFEQLNTDVVMARLSNNVDHGAVLYEANGYVIAWLDYYLKGIETNGTAFFGNEAEIKNNTRYQDFTSQKV
B3: unnamed (protein)
chain: MQNPSAPVVETRQGALTGLTDENVHRWCGIPYAAPPVGDWRWRSPRPPERWDGVRDATAFSASSWQSSEYCQELGGGDPGQFSEDCLYLNVWSPVDRPGSLPVMVWLHGGGFTIGAGGLPPYHGKSLAARGVVVVTINYRLGHLGFFAHPALEGEEERVVHNFALLDQIAALEWVRENITAFGGDPHNVTLFGESAGARSVLSLLASPLAEGLFHKAIVQSGYTLPDTPRQQALQKGEALAAHFGLENATAEQLRAIPPESFWPLTAPLNIAPAPIVGDCVLPEAMLDVFFAARQHPVPVMIGSNSDEASVMAVFGIDLAGQIQKLRRERRFGLGLIKLLYPGVKGDEELGRQVCRDMAFTTMGYVVMQAQQRVGGLCWRYWFDYVAEAEHATYINGAWHGNEVPYVFDTLGQVEPSRQYVNERDLQFAARVADYWVSFARDAGTHDSLSGPTHWPACRKGRDVLLRIGVNKHAGFRLENRFMRARMSLFKRVMKHHVSLD
B4: unnamed (protein)
chain: MKKLLKVLLIIFLVIVVLVIGLVIFLTIASGKQNAPKEYWNAIASEGTIEKEYNKLGSYEFESKVYDAPKVDSHDNNFVVYMPKEEGTYPLVVMVNGSGTPWDKYKAVFEHFASWGYVVVGCNYEISWDGKHASETLDFALNTKEIADKVDTSKVAVCGHSQGGEGAFNAALEYDNSDMYKAIISLSPTNQELALGLKWGFNLDTDDMYAYRLENVTIPTMIIAGTGKFDSETVTPLYKMEDMFEQLNTDVVMARLSNNVDHGAVLYEANGYVIAWLDYYLKGIETNGTAFFGNEAEIKNNTRYQDFTSQKVK
B5: unnamed (protein)
chain: MNFPRASRLMQAAVLGGLMAVSAAATAQTNPYARGPNPTAASLEASAGPFTVRSFTVSRPSGYGAGTVYYPTNAGGTVGAIAIVPGYTARQSSIKWWGPRLASHGFVVITIDTNSTLDQPSSRSSQQMAALRQVASLNGTSSSPIYGKVDTARMGVMGWSMGGGGSLISAANNPSLKAAAPQAPWDSSTNFSSVTVPTLIFACENDSIAPVNSSALPIYDSMSRNAKQFLEINGGSHSCANSGNSNQALIGKKGVAWMKRFMDNDTRYSTFACENPNSTRVSDFRTANCS

Key:
PET [1] = assay: Proxy for plastic degradation [Released monomer concentration (HPLC/LC-MS) (TPA)]; settings: pH 7
PET [2] = assay: Proxy for plastic degradation [Released monomer concentration (HPLC/LC-MS) (MHET)]; settings: pH 7

| Protein | Proxy for plastic degradation (PET [1]) | Proxy for plastic degradation (PET [2]; 37 °C) | further results |
| --- | --- | --- | --- |
| B1 | 4 µM | 0 µM | – |
| B2 | – | – | Proxy for plastic degradation (PET [1]; 37 °C, part of the chain shown): 0 µM; Proxy for plastic degradation (PET [2]; 37 °C, part of the chain shown): 0 µM |
| B3 | 2 µM | 0 µM | Proxy for plastic degradation (PET [1]; 37 °C): 0 µM; Proxy for plastic degradation (PET [2]): 0 µM |
| B4 | 6 µM | – | – |
| B5 | – | – | Proxy for plastic degradation (PET [2]; part of the chain shown): 370 µM |
